The record followed here is patent publication US20030162942A1 (DYAX, published 2003).

Numbering of substitutions follows the chain as printed. Positions of bridges follow the written chain, without caps; N, C: chain ends. No end group written: not given here.

The target of assay [1] is human serum protease thrombin (human, UniProt P00734 328-622). The assay can be described thus: phage binding to protein on beads (data not shown).
For assay [2], the target named is human serum protease plasmin (human, UniProt P00747 97-810, limits assumed). As to the kind of experiment: phage binding to protein on beads (data not shown).
human serum protease plasmin, sequence (P00747 97-810 limits assumed): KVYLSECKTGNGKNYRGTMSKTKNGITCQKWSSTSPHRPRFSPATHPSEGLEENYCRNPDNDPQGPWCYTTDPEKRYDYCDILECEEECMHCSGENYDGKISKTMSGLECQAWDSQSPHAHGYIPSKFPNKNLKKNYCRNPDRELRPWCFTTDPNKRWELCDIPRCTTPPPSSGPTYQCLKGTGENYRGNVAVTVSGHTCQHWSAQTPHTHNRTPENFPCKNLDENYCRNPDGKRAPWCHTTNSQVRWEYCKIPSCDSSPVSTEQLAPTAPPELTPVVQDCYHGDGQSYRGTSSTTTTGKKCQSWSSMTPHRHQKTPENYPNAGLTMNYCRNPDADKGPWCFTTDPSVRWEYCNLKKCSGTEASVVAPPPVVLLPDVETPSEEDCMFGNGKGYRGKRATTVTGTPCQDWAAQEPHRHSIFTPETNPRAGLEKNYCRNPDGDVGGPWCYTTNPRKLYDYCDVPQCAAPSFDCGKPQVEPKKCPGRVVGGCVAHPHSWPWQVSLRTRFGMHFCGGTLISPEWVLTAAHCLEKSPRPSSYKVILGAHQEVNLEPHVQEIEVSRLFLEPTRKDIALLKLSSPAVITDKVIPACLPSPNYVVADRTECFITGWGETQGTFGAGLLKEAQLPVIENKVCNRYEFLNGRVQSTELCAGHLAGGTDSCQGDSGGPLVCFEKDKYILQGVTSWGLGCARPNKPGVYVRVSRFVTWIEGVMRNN
Assay [3] has as its target T1, recombinant human tissue-type plasminogen activator (tPA) (human, UniProt P00750 36-562).
T1 construct: Immobilized on ReactiGel agarose beads for the phage work; Used in solution for the column tests
The assay can be described thus: phage isolate binding to and pH release from immobilized tPA.

In assay [4] the target is T1, recombinant human tissue-type …. As to the kind of experiment: peptide bound to a chromatographic support.

T1 sequence (P00750 36-562 limits assumed): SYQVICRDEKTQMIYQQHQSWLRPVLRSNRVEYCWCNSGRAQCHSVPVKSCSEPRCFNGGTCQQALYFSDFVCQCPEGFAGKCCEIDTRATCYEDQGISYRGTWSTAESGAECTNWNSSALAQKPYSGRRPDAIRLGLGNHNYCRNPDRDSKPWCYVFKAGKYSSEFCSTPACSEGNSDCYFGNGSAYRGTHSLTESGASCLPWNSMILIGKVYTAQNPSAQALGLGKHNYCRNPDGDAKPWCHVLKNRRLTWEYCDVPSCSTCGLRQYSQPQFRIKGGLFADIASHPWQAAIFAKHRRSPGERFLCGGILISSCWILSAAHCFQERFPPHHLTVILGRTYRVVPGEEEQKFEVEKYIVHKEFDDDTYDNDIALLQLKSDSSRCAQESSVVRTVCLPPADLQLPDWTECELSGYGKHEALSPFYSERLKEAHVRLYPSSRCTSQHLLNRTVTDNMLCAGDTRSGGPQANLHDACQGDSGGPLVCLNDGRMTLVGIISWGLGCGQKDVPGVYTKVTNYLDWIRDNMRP

B1: CMTI-I analogue 108, phage isolate (designed binder)
chain: RWCSKSSLECMKDSDCLAECVCLEHGYCGAGPSYIEGRIVGSA
notes: not shown: mature gene III protein of M13 phage
B1: the binding result in assay [1] was “no binding”; in assay [2] it was “no binding”; in assay [3], “binds”.

B2: CMTI-I analogue 109, phage isolate (designed binder)
chain: B1 chain with W2L, S4P, S6T, S7D, E9G
notes: as for B1
Turning to B2, the binding result is “no binding” in assay [1], “no binding” in assay [2] and “binds” in assay [3].

B3: 15-amino acid segment derived from affinity ligand isolate #109 (peptide)
peptide: RLCPKTDLGCMKDSD
modifications: disulfide 3-10; also: bound to a chromatographic support
notes: also called truncated 15-amino acid segment of the isolate #109; C3-C10 loop
On to B3, for which the binding result in assay [4] is on record as “binds”.
